Experiment in all cases: SPR
(In general: Surface plasmon resonance follows binding to a sensor surface in real time, without labels.)

One assay addresses T1, biotinylated mouse FcγRI (mouse, UniProt P26151 25-297, biotin).
T1 chain: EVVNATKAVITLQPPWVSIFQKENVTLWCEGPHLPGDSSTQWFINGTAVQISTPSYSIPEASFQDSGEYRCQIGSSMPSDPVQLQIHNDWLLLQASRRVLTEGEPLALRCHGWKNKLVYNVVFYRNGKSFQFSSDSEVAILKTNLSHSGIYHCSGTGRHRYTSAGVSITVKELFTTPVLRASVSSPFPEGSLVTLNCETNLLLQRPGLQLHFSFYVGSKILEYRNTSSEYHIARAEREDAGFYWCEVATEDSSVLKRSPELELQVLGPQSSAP

The target of assay [1] is T2, biotinylated mouse FcγRIV (mouse, UniProt A0A0B4J1G0 21-203, biotin).
T2 chain: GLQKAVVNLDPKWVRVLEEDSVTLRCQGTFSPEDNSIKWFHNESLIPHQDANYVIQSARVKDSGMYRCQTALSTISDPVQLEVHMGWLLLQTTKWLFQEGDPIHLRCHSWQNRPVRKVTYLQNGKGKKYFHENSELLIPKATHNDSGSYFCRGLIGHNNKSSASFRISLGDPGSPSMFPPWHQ

For the next assay, the target named is T3, His-tagged mouse FcγRIII (mouse, UniProt P08508 31-261).
T3 chain: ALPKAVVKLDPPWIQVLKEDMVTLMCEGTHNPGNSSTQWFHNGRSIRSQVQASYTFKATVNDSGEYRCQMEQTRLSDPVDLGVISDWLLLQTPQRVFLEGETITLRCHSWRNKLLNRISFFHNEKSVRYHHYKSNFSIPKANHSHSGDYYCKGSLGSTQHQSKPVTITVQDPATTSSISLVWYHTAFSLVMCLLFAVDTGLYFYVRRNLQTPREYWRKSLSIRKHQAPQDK

B1: Ipilimumab mIgG2a wildtype (anti-human CTLA-4 mIgG2a with an intact Fc domain) (antibody)
chain 1: QVQLVESGGGVVQPGRSLRLSCAASGFTFSSYTMHWVRQAPGKGLEWVTFISYDGNNKYYADSVKGRFTISRDNSKNTLYLQMNSLRAEDTAIYYCARTGWLGPFDYWGQGTLVTVSS
chain 2: not shown
Regarding B1, the Kd is 85.8 nM with biotinylated mouse FcγRI, 388 nM in assay [1] and 3690 nM with His-tagged mouse FcγRIII.

One may read the Kd as the concentration at which binding is half-saturated. Low readings indicate tighter binding, high ones weaker binding.
